Test results from patent publication US20250276075A1, “METHODS OF TREATING AXL-EXPRESSING CANCERS WITH ANTI-AXL ANTIBODIES, ANTIBODY FRAGMENTS AND THEIR IMMUNOCONJUGATES” (BIOATLA, INC., priority 2020, published 2025).
Where a chain is given by its changes, count along the chain named. Names may count otherwise.

T1: Axl (Homo sapiens, UniProt P30530)
T1 sequence (P30530 26-451 limits assumed): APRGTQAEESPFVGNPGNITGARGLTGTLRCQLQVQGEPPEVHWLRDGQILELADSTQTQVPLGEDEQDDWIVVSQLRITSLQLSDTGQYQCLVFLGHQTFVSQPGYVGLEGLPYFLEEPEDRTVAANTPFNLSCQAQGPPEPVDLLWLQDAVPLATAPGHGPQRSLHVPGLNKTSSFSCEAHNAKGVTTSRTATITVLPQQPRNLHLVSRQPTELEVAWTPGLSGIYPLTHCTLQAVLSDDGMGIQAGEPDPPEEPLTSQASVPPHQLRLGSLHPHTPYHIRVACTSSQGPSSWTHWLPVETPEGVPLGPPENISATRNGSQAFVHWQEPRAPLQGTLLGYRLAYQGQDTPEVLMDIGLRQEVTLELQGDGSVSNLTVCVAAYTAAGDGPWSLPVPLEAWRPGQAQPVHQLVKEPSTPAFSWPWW

B1: CAB-Axl-ADC: anti-Axl antibody conjugated to a model toxin (e.g., gemcitabine), conditionally active antibody-drug conjugate (conjugate)
VH: EVQLVQSGAEVKKPGATVKISCKVSGYSFWGATMNWIRQPPGKGLEWIGLIKPSNGGTSYNQKFKGRVTISADKSISTAYLQWSSLKASDTAMYYCAHGHYESYEAMDYWGQGTLVTVSS
VL: DIQMTQSPSSLSASVGDRVTITCKASQDVVSAVAWYQQKPGQAPRLLIYWQDTRHTGVPSRFSGSGSGTEFTLTISSLQPDDFATYYCQEHFSPPLTFGQGTKVEIK
B2: HC-M107F (antibody, V domains shown)
VH: B1 VH with W30T, A32H, E105F, M107F
VL: B1 VL with V30S, Q51A, D52S, P94T
B3: HC-W110P (antibody, V domains shown)
VH: B1 VH with W30T, A32H, E105F, W110P
VL: B1 VL with V30S, Q51A, D52S, P94T
B4: HC-G111H (antibody, V domains shown)
VH: B1 VH with W30T, A32H, E105F, G111H
VL: B1 VL with V30S, Q51A, D52S, P94T
B5: HC-W110A (antibody, V domains shown)
VH: B1 VH with W30T, A32H, E105F, W110A
VL: B1 VL with V30S, Q51A, D52S, P94T

The molecules below were run on MiaPaCa2 xenograft tumors (assay: MiaPaCa2 xenograft tumor study in mice). Details: 1 mg/kg twice weekly for 3 weeks; in comparison with the controls.
Assay type: in vivo
Method: The CAB-Axl-ADC was then injected into mice bearing MiaPaCa2 xenograft tumors at a dose of 1 mg/kg twice weekly for 3 weeks. Several controls were used in this study, including naked CAB (anti-Axl antibody with no conjugation), vehicle, the toxin alone (unconjugated gemcitable), control ADC, an affinity matching anti-Axl ADC (AM ADC).

In the case of B1, the “reduction in the size of the tumor” value is reported as “significantly greater reduction in the size of the tumor”.

These molecules were tested against T1, Axl (assay: Affinity ELISA of CPE mutant antibodies for binding to Axl at pH 6.0 over pH 7.4). Details: heavy chain variable region mutants; 1:3 dilution.
Summary of the method: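 Single-point mutant anti-Axl antibody library (CPE) screened by ELISA for binding at pH 6.0 versus pH 7.4, at 1:3 and 1:9 antibody dilutions, in serum with FLAG-tag detection and carbonate (Krebs-Ringer) buffer. Selection criterion: pH 6.0/pH 7.4 binding ratio ≥1.5 at either dilution.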

Point of comparison: B3, “Affinity ELISA CPE mutant ratio (1:3, pH 6.0/7.4)” value 6.490. Against it:
- B2 — higher, 20.579
- B4 — lower, 1.058
- B5 — higher, 7.909

Same assay, conditions: heavy chain variable region mutants; 1:9 dilution

Point of comparison: B3, “Affinity ELISA CPE mutant ratio (1:9, pH 6.0/7.4)” value 2.148. Against it:
- B2 — lower, 1.090
- B4 — lower, 1.786
- B5 — lower, 1.198

The molecules below were run against Axl (UniProt P30530) (assay: ELISA, 1:9 dilution). Details: not given.

Point of comparison: B5, Affinity ELISA CPE mutant ratio (1:9, pH 6.0/7.4) 1.2. Against it:
- B2 — lower, 1.09
- B3 — higher, 2.15
- B4 — higher, 1.79

Each molecule was assayed on A549 cells (assay: Conditional cell killing by CAB-Axl-ADC (model toxin) at pH 6.0 and 7.4). Details: FIG. 11.
Assay type: cell-based
From the text: The anti-Axl antibody of the present invention was conjugated to a model toxin (e.g., gemcitabine) to produce a conditionally active antibody-drug conjugate (CAB-Axl-ADC). The CAB-Axl-ADC was first tested to confirm that the conditional cell killing activity was not altered by the drug conjugation process.

With B1 the “cell killing at pH 6.0 versus pH 7.4” value was “killed significantly more cells at pH 6.0 than at pH 7.4”.

Each molecule was assayed against Axl (UniProt P30530) (assay: ELISA, 1:3 dilution). Details: not given.

Point of comparison: B2, Affinity ELISA CPE mutant ratio (1:3, pH 6.0/7.4) 20.6. Against it:
- B3 — lower, 6.49
- B4 — lower, 1.06
- B5 — lower, 7.91
